Laboratory results published in patent US20160311911A1, “METHODS FOR TREATING ALLERGIC AIRWAY INFLAMMATION” (priority 2015, published 2016).

Experiments:
[1] = target: TLR4 on TLR4^Hi HEK 293 cells (TLR4^Hi, CD14^Null, MD2^Null; InvivoGen) (UniProt O00206); experiment: flow cytometry; HEK 293 cells incubated with 100 ug/mL BODIPY-RWPE for 30 minutes on ice, then washed
[2] = target: TLR4, CD14 and MD2 on TCM^Hi HEK 293 cells (TLR4^Hi, CD14^Hi, MD2^Hi; InvivoGen) (UniProt O00206); experiment: as above
Chain of TLR4, CD14 and MD2 on TCM^Hi HEK 293 cells (TLR4^Hi, CD14^Hi, MD2^Hi; InvivoGen) (O00206 24-839 limits assumed, chain 1 of 3): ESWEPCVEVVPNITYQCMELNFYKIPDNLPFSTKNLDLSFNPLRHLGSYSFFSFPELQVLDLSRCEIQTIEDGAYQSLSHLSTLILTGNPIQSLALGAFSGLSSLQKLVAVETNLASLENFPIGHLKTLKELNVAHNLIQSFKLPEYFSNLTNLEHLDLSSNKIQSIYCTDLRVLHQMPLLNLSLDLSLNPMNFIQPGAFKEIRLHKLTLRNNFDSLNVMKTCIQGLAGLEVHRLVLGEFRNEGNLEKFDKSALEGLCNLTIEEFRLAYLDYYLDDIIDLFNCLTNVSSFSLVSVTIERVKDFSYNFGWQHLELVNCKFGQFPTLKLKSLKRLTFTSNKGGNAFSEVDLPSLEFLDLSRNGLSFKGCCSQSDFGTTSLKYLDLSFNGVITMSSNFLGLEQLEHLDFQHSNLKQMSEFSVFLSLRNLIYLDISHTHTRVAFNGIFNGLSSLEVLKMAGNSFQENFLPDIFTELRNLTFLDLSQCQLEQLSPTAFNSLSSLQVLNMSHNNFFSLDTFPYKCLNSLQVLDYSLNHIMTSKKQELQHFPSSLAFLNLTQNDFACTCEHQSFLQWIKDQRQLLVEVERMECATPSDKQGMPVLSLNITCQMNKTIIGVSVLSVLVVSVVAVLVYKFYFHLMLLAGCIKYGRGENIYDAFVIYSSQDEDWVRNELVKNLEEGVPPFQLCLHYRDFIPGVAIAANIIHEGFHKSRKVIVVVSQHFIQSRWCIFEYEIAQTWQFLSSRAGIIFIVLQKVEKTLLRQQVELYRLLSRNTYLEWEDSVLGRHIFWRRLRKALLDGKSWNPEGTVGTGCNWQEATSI
Chain of TLR4, CD14 and MD2 on TCM^Hi HEK 293 cells (TLR4^Hi, CD14^Hi, MD2^Hi; InvivoGen) (P08571 20-345 limits assumed, chain 2 of 3, further chain): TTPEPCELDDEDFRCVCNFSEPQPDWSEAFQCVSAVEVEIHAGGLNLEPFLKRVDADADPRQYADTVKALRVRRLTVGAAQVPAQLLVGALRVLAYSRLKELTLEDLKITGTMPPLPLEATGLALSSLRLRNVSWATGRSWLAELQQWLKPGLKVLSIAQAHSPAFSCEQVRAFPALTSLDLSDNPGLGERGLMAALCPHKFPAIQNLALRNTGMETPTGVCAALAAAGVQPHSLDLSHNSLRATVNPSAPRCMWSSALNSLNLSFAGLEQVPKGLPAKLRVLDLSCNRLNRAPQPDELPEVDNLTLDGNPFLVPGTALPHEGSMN
Chain of TLR4, CD14 and MD2 on TCM^Hi HEK 293 cells (TLR4^Hi, CD14^Hi, MD2^Hi; InvivoGen) (Q9Y6Y9 19-160 limits assumed, chain 3 of 3, further chain): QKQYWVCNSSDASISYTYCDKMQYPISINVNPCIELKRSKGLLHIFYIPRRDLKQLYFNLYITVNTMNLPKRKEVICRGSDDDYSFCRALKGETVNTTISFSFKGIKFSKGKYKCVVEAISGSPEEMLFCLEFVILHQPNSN

Chain of TLR4 on TLR4^Hi HEK 293 cells (TLR4^Hi, CD14^Null, MD2^Null; InvivoGen) (O00206 24-839 limits assumed): as the sequence (O00206 24-839 limits assumed, chain 1 of 3) above

## BODIPY-labeled ragweed pollen extract (RWPE)
[1]
  BODIPY-RWPE staining (% by FACS): < 3%
[2]
  BODIPY-RWPE staining (% by FACS): 12.9%
